Results as given in article PMC9482650, “Quantitative fragmentomics allow affinity mapping of interactomes” (Nature Communications, 2022).

Assays:
Experiment in all cases: holdup assay
Design in all cases: key: below the threshold = too weak to quantify, mostly under pKd 3.1 to 4
PARD3B_1, Q8TEW8 = target: T1, PARD3B_1, Q8TEW8
T1 sequence (Q8TEW8 196-299, limits assumed, looked up): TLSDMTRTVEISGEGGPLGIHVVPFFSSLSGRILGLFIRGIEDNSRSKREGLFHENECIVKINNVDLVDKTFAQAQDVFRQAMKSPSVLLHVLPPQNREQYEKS

GOPC, Q9HD26 = target: GOPC, Q9HD26
APBA2_1, Q99767 = target: T2, APBA2_1, Q99767
T2 sequence (Q99767 563-664, limits assumed, looked up): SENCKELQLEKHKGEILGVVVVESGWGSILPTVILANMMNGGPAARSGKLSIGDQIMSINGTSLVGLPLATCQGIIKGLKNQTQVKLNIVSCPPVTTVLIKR

RAPGEF6, Q8TEU7 = target: T3, RAPGEF6, Q8TEU7
T3 sequence (Q8TEU7 525-625, limits assumed, looked up): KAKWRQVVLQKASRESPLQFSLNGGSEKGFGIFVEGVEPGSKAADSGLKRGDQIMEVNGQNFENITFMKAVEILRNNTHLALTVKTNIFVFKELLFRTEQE

MAGI3_2, Q5TCQ9 = target: MAGI3_2, Q5TCQ9
MAGI3_2, Q5TCQ9, sequence (Q5TCQ9 398-503): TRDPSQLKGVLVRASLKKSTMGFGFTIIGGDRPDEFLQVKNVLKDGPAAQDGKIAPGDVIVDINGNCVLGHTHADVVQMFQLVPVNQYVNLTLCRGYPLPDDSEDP

AHNAK1, Q09666 = target: AHNAK1, Q09666
AHNAK1, Q09666, sequence (Q09666 4-100): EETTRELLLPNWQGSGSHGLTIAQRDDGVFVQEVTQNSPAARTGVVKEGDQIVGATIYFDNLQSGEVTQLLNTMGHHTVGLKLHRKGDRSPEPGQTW

APBA1_1, Q02410 = target: T4, APBA1_1, Q02410
T4 sequence (Q02410 651-752, limits assumed, looked up): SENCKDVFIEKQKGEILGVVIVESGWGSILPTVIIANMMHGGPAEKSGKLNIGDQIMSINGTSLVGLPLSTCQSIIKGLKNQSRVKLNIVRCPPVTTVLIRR

RADIL, Q96JH8 = target: T5, RADIL, Q96JH8
T5 sequence (Q96JH8 971-1071, limits assumed, looked up): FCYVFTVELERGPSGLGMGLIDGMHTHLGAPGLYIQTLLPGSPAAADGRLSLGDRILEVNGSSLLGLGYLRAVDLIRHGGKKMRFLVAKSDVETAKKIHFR

IL16_1, Q14005 = target: IL16_1, Q14005
IL16_1, Q14005, sequence (Q14005 210-306): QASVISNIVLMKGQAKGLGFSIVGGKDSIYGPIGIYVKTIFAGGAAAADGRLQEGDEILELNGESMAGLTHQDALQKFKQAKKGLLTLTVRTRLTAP

GRASP, Q7Z6J2 = target: GRASP, Q7Z6J2
GRASP, Q7Z6J2, sequence (Q7Z6J2 96-193): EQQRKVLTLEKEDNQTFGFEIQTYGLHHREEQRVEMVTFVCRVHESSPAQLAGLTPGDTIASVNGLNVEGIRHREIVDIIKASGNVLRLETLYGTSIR

MPDZ_10, O75970 = target: T6, MPDZ_10, O75970
T6 sequence (O75970 1624-1722, limits assumed, looked up): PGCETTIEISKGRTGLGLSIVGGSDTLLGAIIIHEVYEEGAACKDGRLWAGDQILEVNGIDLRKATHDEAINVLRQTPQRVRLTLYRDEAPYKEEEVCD

MPDZ_12, O75970 = target: T7, MPDZ_12, O75970
T7 sequence (O75970 1857-1958, limits assumed, looked up): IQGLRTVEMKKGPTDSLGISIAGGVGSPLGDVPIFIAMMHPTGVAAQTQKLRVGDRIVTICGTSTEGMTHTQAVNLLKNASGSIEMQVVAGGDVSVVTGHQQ

SHANK1, Q9Y566 = target: T8, SHANK1, Q9Y566
T8 sequence (Q9Y566 658-767, limits assumed, looked up): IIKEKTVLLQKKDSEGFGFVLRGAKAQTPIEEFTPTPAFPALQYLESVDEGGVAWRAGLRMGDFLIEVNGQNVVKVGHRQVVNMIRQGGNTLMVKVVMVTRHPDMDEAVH

Inadl_9, Q8NI35 = target: Inadl_9, Q8NI35
Inadl_9, Q8NI35, sequence (Q8NI35 1530-1615): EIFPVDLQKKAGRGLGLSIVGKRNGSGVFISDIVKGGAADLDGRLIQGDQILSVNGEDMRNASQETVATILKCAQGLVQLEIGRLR

ARHGAP21, Q5T5U3 = target: T9, ARHGAP21, Q5T5U3
T9 sequence (Q5T5U3 45-169, limits assumed, looked up): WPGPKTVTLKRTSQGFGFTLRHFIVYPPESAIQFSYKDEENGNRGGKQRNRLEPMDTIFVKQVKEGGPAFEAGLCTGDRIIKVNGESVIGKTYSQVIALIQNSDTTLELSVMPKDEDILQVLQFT

SCRIB_1, Q14160 = target: SCRIB_1, Q14160
SCRIB_1, Q14160, sequence (Q14160 718-814): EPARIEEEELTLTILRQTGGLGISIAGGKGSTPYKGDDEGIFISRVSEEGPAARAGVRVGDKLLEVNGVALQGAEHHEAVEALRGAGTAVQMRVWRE

MAGI2_4, Q86UL8 = target: MAGI2_4, Q86UL8
MAGI2_4, Q86UL8, sequence (Q86UL8 772-865): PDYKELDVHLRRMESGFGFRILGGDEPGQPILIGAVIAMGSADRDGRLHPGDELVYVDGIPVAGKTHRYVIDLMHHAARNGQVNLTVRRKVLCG

MPDZ_5, O75970 = target: T10, MPDZ_5, O75970
T10 sequence (O75970 695-796, limits assumed, looked up): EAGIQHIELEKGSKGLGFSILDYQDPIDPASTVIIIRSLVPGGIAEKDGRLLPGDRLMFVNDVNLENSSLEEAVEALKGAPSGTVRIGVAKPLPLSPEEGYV

FRMPD2_2, Q68DX3 = target: FRMPD2_2, Q68DX3
FRMPD2_2, Q68DX3, sequence (Q68DX3 944-1038): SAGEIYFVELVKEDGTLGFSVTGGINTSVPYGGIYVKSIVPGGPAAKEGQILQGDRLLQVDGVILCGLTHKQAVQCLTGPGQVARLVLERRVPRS

LNX1_1, Q8TBB1 = target: LNX1_1, Q8TBB1
LNX1_1, Q8TBB1, sequence (Q8TBB1 261-371): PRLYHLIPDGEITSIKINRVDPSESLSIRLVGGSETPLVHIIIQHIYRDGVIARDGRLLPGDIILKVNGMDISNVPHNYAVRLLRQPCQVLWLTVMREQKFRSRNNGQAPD

NHERF4_1, Q86UT5-2 = target: NHERF4_1, Q86UT5-2
NHERF4_1, Q86UT5-2, sequence (Q86UT5 other isoform, or with tags, fused parts or gaps): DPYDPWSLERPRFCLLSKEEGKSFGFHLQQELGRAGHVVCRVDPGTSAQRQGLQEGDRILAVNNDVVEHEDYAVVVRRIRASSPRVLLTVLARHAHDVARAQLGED

LAP2, Q96RT1 = target: LAP2, Q96RT1
LAP2, Q96RT1, sequence (Q96RT1 other isoform, or with tags, fused parts or gaps): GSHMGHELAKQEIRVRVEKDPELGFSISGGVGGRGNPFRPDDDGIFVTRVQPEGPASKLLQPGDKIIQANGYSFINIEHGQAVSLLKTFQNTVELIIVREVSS

NHERF4_2, Q86UT5 = target: NHERF4_2, Q86UT5
NHERF4_2, Q86UT5, sequence (Q86UT5 220-308): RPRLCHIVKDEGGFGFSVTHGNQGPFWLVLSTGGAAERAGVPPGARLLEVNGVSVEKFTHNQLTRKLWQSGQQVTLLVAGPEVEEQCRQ

DLG1_3, Q12959 = target: DLG1_3, Q12959
DLG1_3, Q12959, sequence (Q12959 457-571): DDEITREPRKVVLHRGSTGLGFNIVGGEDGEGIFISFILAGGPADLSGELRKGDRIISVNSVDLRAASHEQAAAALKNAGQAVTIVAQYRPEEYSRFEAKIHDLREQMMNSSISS

GRID2IP_1, A4D2P6 = target: GRID2IP_1, A4D2P6
GRID2IP_1, A4D2P6, sequence (A4D2P6 1-87): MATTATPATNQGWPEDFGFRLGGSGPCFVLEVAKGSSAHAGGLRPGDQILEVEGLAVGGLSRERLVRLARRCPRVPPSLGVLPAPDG

DLG5_1, Q8TDM6 = target: DLG5_1, Q8TDM6
DLG5_1, Q8TDM6, sequence (Q8TDM6 617-713): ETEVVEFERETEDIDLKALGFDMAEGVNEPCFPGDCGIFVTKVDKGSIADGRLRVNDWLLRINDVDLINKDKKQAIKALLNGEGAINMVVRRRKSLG

[1] = plain residues with an end cap or a label only (N-terminal biotin on a linker: none)
[2] = plain residues with an end cap or a label only (N-terminal biotin on a linker: ahx)
[3] = plain residues with an end cap or a label only (N-terminal biotin on a linker: ttds)

DSKPPLPPDEWV [MERS-E, K9N5R3] was tested, and the pKd (PARD3B_1, Q8TEW8; [1]) was 3.5, the pKd (GOPC, Q9HD26; [1]) was 3.92 and the pKd (APBA2_1, Q99767; [1]) was “below the threshold”. The pKd (RAPGEF6, Q8TEU7; [1]) was “below the threshold”, the pKd (MAGI3_2, Q5TCQ9; [1]) was “below the threshold” and the pKd (AHNAK1, Q09666; [1]) was “below the threshold”. It also gave a pKd (APBA1_1, Q02410; [1]) of 3.53, a pKd (RADIL, Q96JH8; [1]) of 4.06 and a pKd (IL16_1, Q14005; [1]) of 3.64. For the same binder, the pKd (GRASP, Q7Z6J2; [1]) was “below the threshold”, the pKd (MPDZ_10, O75970; [1]) was “below the threshold” and the pKd (MPDZ_12, O75970; [1]) was “below the threshold”. The pKd (SHANK1, Q9Y566; [1]) was “below the threshold”, the pKd (Inadl_9, Q8NI35; [1]) was 3.57 and the pKd (ARHGAP21, Q5T5U3; [1]) was 3.76. For the same binder, the pKd (SCRIB_1, Q14160; [1]) was 4.52, the pKd (MAGI2_4, Q86UL8; [1]) was 3.73 and the pKd (MPDZ_5, O75970; [1]) was “below the threshold”. For the same binder, the pKd (FRMPD2_2, Q68DX3; [1]) was “below the threshold”, the pKd (LNX1_1, Q8TBB1; [1]) was “below the threshold” and the pKd (NHERF4_1, Q86UT5-2; [1]) was “below the threshold”. For the same binder, the pKd (LAP2, Q96RT1; [1]) was 5.24, the pKd (NHERF4_2, Q86UT5; [1]) was “below the threshold” and the pKd (DLG1_3, Q12959; [1]) was 3.5. For the same binder, the pKd (GRID2IP_1, A4D2P6; [1]) was 3.57 and the pKd (DLG5_1, Q8TDM6; [1]) was “below the threshold”.

HSGSYLVTSV [APC, P25054] was tested, and the pKd (PARD3B_1, Q8TEW8; [2]) was “below the threshold”, the pKd (GOPC, Q9HD26; [2]) was 4.3 and the pKd (APBA2_1, Q99767; [2]) was “below the threshold”. For the same binder, the pKd (RAPGEF6, Q8TEU7; [2]) was “below the threshold”, the pKd (MAGI3_2, Q5TCQ9; [2]) was 4.53 and the pKd (AHNAK1, Q09666; [2]) was “below the threshold”. The pKd (APBA1_1, Q02410; [2]) was “below the threshold”, the pKd (RADIL, Q96JH8; [2]) was 4.23 and the pKd (IL16_1, Q14005; [2]) was 3.58. It also gave a pKd (GRASP, Q7Z6J2; [2]) of 5.06, a pKd (MPDZ_10, O75970; [2]) of 4.06 and a pKd (MPDZ_12, O75970; [2]) of 3.63. The pKd (SHANK1, Q9Y566; [2]) was 4.1, the pKd (Inadl_9, Q8NI35; [2]) was “below the threshold” and the pKd (ARHGAP21, Q5T5U3; [2]) was “below the threshold”. For the same binder, the pKd (SCRIB_1, Q14160; [2]) was 5.04, the pKd (MAGI2_4, Q86UL8; [2]) was 4.17 and the pKd (MPDZ_5, O75970; [2]) was “below the threshold”. For the same binder, the pKd (FRMPD2_2, Q68DX3; [2]) was 4.61, the pKd (LNX1_1, Q8TBB1; [2]) was 4.45 and the pKd (NHERF4_1, Q86UT5-2; [2]) was “below the threshold”. The pKd (LAP2, Q96RT1; [2]) was 4.87, the pKd (NHERF4_2, Q86UT5; [2]) was “below the threshold” and the pKd (DLG1_3, Q12959; [2]) was 4.88. The pKd (GRID2IP_1, A4D2P6; [2]) was “below the threshold” and the pKd (DLG5_1, Q8TDM6; [2]) was “below the threshold”.

For HRTCYLVTQL [ASIC3, Q9UHC3], the pKd (PARD3B_1, Q8TEW8; [3]) was 3.95, the pKd (GOPC, Q9HD26; [3]) was 4.79 and the pKd (APBA2_1, Q99767; [3]) was “below the threshold”. For the same binder, the pKd (RAPGEF6, Q8TEU7; [3]) was 3.49, the pKd (MAGI3_2, Q5TCQ9; [3]) was 4.3 and the pKd (AHNAK1, Q09666; [3]) was 3.33. The pKd (APBA1_1, Q02410; [3]) was “below the threshold”, the pKd (RADIL, Q96JH8; [3]) was 4.43 and the pKd (IL16_1, Q14005; [3]) was “below the threshold”. It also gave a pKd (GRASP, Q7Z6J2; [3]) of 4.77, a pKd (MPDZ_10, O75970; [3]) of 3.91 and a pKd (MPDZ_12, O75970; [3]) of 3.34. For the same binder, the pKd (SHANK1, Q9Y566; [3]) was 4.91, the pKd (Inadl_9, Q8NI35; [3]) was “below the threshold” and the pKd (ARHGAP21, Q5T5U3; [3]) was 3.47. For the same binder, the pKd (SCRIB_1, Q14160; [3]) was 5.54, the pKd (MAGI2_4, Q86UL8; [3]) was 3.75 and the pKd (MPDZ_5, O75970; [3]) was 3.4. It also gave a pKd (FRMPD2_2, Q68DX3; [3]) of 3.76, a pKd (LNX1_1, Q8TBB1; [3]) of 4.03 and a pKd (NHERF4_1, Q86UT5-2; [3]) of 4.49. The pKd (LAP2, Q96RT1; [3]) was 4.02, the pKd (NHERF4_2, Q86UT5; [3]) was 3.21 and the pKd (DLG1_3, Q12959; [3]) was 4.56. The pKd (GRID2IP_1, A4D2P6; [3]) was “below the threshold” and the pKd (DLG5_1, Q8TDM6; [3]) was “below the threshold”.
